Assays:
[1] = IF of GFP-EREG in HEK293, membrane localisation; conditions: glycan lost; control: GFP-EREG-WT, untreated
[2] = ELISA of EREG in HEK293 conditioned medium; conditions: glycan lost; control: EREG-WT
[3] = CHX chase immunoblot, protein remaining; conditions: glycan lost; control: untreated

Substance | localisation_or_trafficking [1] | expression_or_secretion [2] | degradation_or_half_life [3]
Epiregulin (EREG): N47Q | decreases | decreases | –
Epiregulin (EREG): tunicamycin | decreases | – | decreases
Epiregulin (EREG): NGI-1 | decreases | – | decreases
